Data: the supplement of paper PMC12667976

B1: library; numbered along this chain (parent)
chain: MATDAALRRLLRLHRTEIAVAVDSAFPLLHALADHDVVPEDKFQETLHLKEKEGCPQAFHALLSWLLTQDSTAILDFWRVLFKDYNLERYGRLQPILDSFPKDVDLSQPRKGRKPPAVPKALVPPPRLPTKRKASEEARAAAPAALTPRGTASPGSQLKAKPPKKPESSAEQQRLPLGNGIQTMSASVQRAVAMSSGDVPGARGAVEGILIQQVFESGGSKKCIQVGGEFYTPSKFEDSGSGKNKARSSSGPKPLVRAKGAQGAAPGGGEARLGQQGSVPAPLALPSDPQLHQKNEDECAVCRDGGELICCDGCPRAFHLACLSPPLREIPSGTWRCSSCLQATVQEVQPRAEEPRPQEPPVETPLPPGLRSAGEEVRGPPGEPLAGMDTTLVYKHLPAPPSAAPLPGLDSSALHPLLCVGPEGQQNLAPGARCGVCGDGTDVLRCTHCAAAFHWRCHFPAGTSRPGTGLRCRSCSGDVTPAPVEGVLAPSPARLAPGPAKDDTASHEPALHRDDLESLLSEHTFDGILQWAIQSMARPAAPFPS

Variants of: B1
Assay: AIRE transcriptional activation functional score (insulin promoter-GFP; nonsense median 0, synonymous median 1) (normalised score); higher = higher AIRE activity (more reporter activation)
Settings: with insulin promoter-GFP reporter in HEK293
Procedure, shortened: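 Functional scores come from comparing select with non-select enrichment of each variant and subtracting wild type. Codon-optimized AIRE NNN-codon libraries across three regions were integrated via Bxb1 recombinase into HEK293 landing-pad cells with an insulin core promoter-GFP reporter, and integrants sorted at day 7 were expanded 7 days before top 10% GFP and unselected populations were tile-sequenced. Variants needed 10 counts per million in non-select, and values were rescaled to nonsense median 0 and synonymous median 1 before averaging over biological replicates.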

AIRE transcriptional activation functional score of substitutions, site by site:
P416: G 0.937, R 0.68, F 0.451, T 0.937, Y 0.419, S 1.09, H -0.0276, I 0.0784, K 0.665, C 1.46, V 0.526, L 0.688, D -0.251, M 1.55, N 1.21, Q 1.49, W 1.5, A 0.819
D410: E 1.11, K 0.35, Y 1.27, V 0.998, F 1.06, R 0.412, S 1.27, M 0.501, Q 1.2, L 1.08, A 1.09, G 0.967, N 1.12, I 1.19, H 1.17, C 1.12, T 1.41, W 0.337, P 0.93
L418: Q 1.28, K 0.4, D 0.816, Y 1.42, I 0.6, N 1.02, C 1.16, H 0.443, F 1.42, E 0.507, S 0.85, A 1.06, G 1, P 0.93, T 0.829, V 1.04, R 0.67, M 0.207
L409: A 0.384, R 0.789, V 0.903, Q 0.636, T 1.02, F 0.907, I 1.16, H 0.62, M 1.03, Y 0.962, P 1.25, G 0.891, E 0.899, C 0.887, S 1.23, K 0.881, N 0.459, D 1.21
S411: R 0.871, Y 1.06, M 1.37, H 0.897, K 1.18, N 0.99, G 0.952, T 0.867, V 1.06, I 1.3, A 1.04, Q 0.0682, E 0.407, C 1.45, D 0.711, P 1.08, W 1.31, L 1.24, F 1.46
G421: C 1.58, N 0.869, A 0.875, M 0.931, E 1.65, H -0.132, V 0.933, R 0.926, Y -0.246, D 1.83, T 0.472, P 1.4, L 0.327, S 0.74, K 0.558, F 1.33, W 1.43
L414: K 0.634, S 0.625, E 1.08, T 1.14, G 0.546, I 1.45, H 0.857, N 1.07, D 1.03, A 1.49, R 0.749, F 1.41, C 0.792, Y -0.109, W 0.979, V 1.1, P 0.785
P422: W 1.69, D 1.69, N 1.18, H 0.986, Q 0.91, L 1.3, C 1.28, A 0.724, F 0.774, T 0.528, G 1.53, I 1.26, V 0.479, E 0.766, R 0.868, S 0.814, Y 1.42
S412: Q 0.66, L 1.15, P 0.711, C 0.988, I 0.868, V 1.13, T 1.02, W 1.72, K 0.899, A 1.09, F 1.37, Y 1.5, D 0.652, E 0.743, G 1.03, R 1.07, H 1.26, M 1.3, N 0.717
L417: E 0.739, D 1.12, W 1.3, R 0.707, Q 1.07, P 0.784, G 0.679, K 0.833, F 1.3, H 0.632, V 0.708, T 0.966, Y 1.21, C 1.24, N 1.05, I 0.855, S 0.626, A 0.892
P407: I 1.43, K 0.865, Q 1.2, V 1.23, T 1.18, W 1.13, R 0.823, F 1.2, D 1.67, N 1.39, G 1.07, L 1.06, S 1.19, E 0.454, Y 1.51, A 0.943, M 1.6, H 1.28, C 1.24
H415: I 0.632, K 0.65, W 0.671, C 0.616, R 0.811, N 1.22, S 0.782, E 1.32, Q 0.783, G 0.474, L 1.22, D 0.797, Y 1.42, V 1.06, P 1.11, A 1.08, M -0.327, F 1.67, T 0.92
G424: R 1.03, A 1.25, P 1.24, V 1.25, L 1.08, Q 1.49, D 1, T 1.59, F 1.64, N 0.684, C 1.41, H 0.363, K 1.04, M 0.308, I -0.488, S 1.19, E 0.64
A413: F 0.975, C 1.42, Q 1.01, L 1.43, K 0.606, G 1.12, I 1.34, N 0.373, Y 1.25, D 0.666, W 1.15, E 0.842, M 1.02, P 0.731, H 0.905, V 0.931, S 0.965, T 1.17, R 0.964
V420: D 0.683, Q -0.123, S 1.07, A 1.04, Y 0.639, M 1.43, H 0.593, C 1.11, I 0.811, E 0.728, F 1.03, L 0.722, K 0.606, W 1.35, G 0.846, P 1.01, T 0.608, R 1.03
L406: Q 1.11, M 1.3, S 0.856, T 0.633, N 1.18, P 0.97, V 0.908, Y 1.02, W 0.702, R 0.985
C419: N 0.258, R 0.836, H 0.558, K 1.17, Q 1.3, T 1.2, F 1.64, D 0.584, W 1.21, A 0.69, E 1.04, V 1.22, P 1.24, S 0.615, L 1.33, I 0.681, G 0.96
G408: I 0.636, K 1.14, N 0.674, T 0.879, F 1.28, H 1.31, A 0.914, C 1.01, S 1.03, R 0.906, Y 1.08, Q 1.29, P 0.97, E 1.05, D 1.2, L 0.00278, V 0.743, W 1.34
E423: P 0.817, C 0.459, T 0.737, Q 0.981, K 0.795, R 0.409, A 1.2, D 1.25, F 1.02, H 1.2, M 0.551, V 1.2, I 1.05, S 1.27, G 1.34, Y 1.38, L 1.28
